Assay results reported in US20110263454A1, “Methods of Identifying Functional Characteristics of Promoters, Transcription Modifying Proteins and Transcription Modulating Agents” (Salk Institute for Biological Studies, priority 2008, published 2011).

What was measured:
[1] = system: mPer1 promoter; test: NHR-promoter luciferase screen, mPer1 promoter; type: cell-based, mouse; conditions: for Luc. act., normalized to lacZ / Normalized Luc. act., normalized to control: Per1 promoter reporter, co-transfected HR, with or without its ligand; for Normalized Luc. act., normalized to control: relative to control; for luciferase activity normalized to lacZ activity and to a control, mPer1: mPer1 promoter-luciferase, CV-1 cells, NHR +/- ligand, control = 1.00
Description: (§1) The use, feasibility, and reproducibility of the functional NHR-promoter screen in a 48-well format have been tested validated. Briefly, there were co-expressed 50 ng of each NHR/NHR homodimer or NHR/RXR heterodimer with 100 ng promoter/luciferase construct and 50 ng of LacZ (as a control for transfection efficiency) in CV-1 cells using Fugene HD (Roche) as a transfection reagent (alternatively or additionally, a CMV-YFP construct can be used as a transfection control). Each of the nuclear hormone receptors that were used in these experiments was cloned into a pcDNA3.1 vector and comprised a C-terminally linked V5H6 tag. Twenty-four hours after transfection, appropriate ligands were added, where applicable, (see Table 5 for various ligands and concentrations and after 48 hrs, samples were assayed for luciferase and LacZ activity. To measure for luciferase activity 15 ul of sample was added to 30 ul of luciferase buffer (20 mM tricine, 1.07 mM MgCarbonate, 2.67 mM MgSulfate, 0.1 mM Naz-EDTA, 5 mM DTT, 5 mM ATP, 0.15 mg/ml CoA, 0.5 mM Luciferin), mixed briefly, and run in a Perkin Elmer Victor 5 luminometer. Thus, the functional NHR-promoter screen was used to observe the transcriptional activity of 29 promoters from various physiological pathways including inflammation, lipid and sugar metabolism, cholesterol transport, xenobiotic metabolism, and circadian rhythm.
(§2) The promoters that facilitate transcription of the indicated gene products that were tested using the protocols described herein are listed in the first row of the table. The nuclear hormone receptors and, where applicable, ligands that were assayed for their transcriptional effects on the promoters are listed in the first column of the table. The data represent the luciferase activity of each sample normalized to both the lacZ activity of that sample and to a control, e.g., no NHR or ligand, as customary in the art. As described previously, these normalizations allow the transcriptional activity of each reporter cell to be compared to other samples.
(§3) Tables 7-40 show the transcriptional effects of the hormone receptors, and, where applicable, ligands (orphan receptors are screened without ligand), on each individual promoter. […] The control data of each table are shown in their last rows.

[2] = system: mUCP1 promoter; test: NHR-promoter luciferase screen, mUCP1 promoter; type: cell-based, mouse; conditions: for Luc. act., normalized to lacZ / Normalized Luc. act., normalized to control: mUCP1 promoter reporter, co-transfected HR, with or without its ligand; for Normalized Luc. act., normalized to control: relative to control; for luciferase activity normalized to lacZ activity and to a control, mUCP!: mUCP! promoter-luciferase, CV-1 cells, NHR +/- ligand, control = 1.00
Description: as §1, §2, §3

[3] = system: mLeptin promoter; test: NHR-promoter luciferase screen, mLeptin promoter; type: cell-based, mouse; conditions: for Luc. act., normalized to lacZ / Normalized Luc. act., normalized to control: Table 7, mLeptin; for Results of assays of transcription factor (+/- ligand) with mLeptin: Table 6d, luciferase activity relative to control (control = 1.00)
Description: as §1, §2, §3

[4] = system: mUCP3 promoter; test: NHR-promoter luciferase screen, mUCP3 promoter; type: cell-based, mouse; conditions: for Normalized Luc. act., normalized to control / Luc. act., normalized to lacZ: mUCP3 promoter reporter; for Normalized Luc. act., normalized to control: HR without or with its ligand, relative to control; for Luc. act., normalized to lacZ: hormone receptor (HR) without or with its ligand; for mUCP3 promoter reporter activity: transcription factor +/- ligand, control = 1.00
Description: as §1, §2, §3

[5] = system: hMDR1 promoter; test: NHR-promoter luciferase screen, hMDR1 promoter; type: cell-based, human; conditions: for Luc. act., normalized to lacZ / Normalized Luc. act., normalized to control: MDR1 promoter, HR/ligand component; for hMDR1 promoter reporter activity: transcription factor +/- ligand, control = 1.00
Description: as §1, §2, §3

[6] = system: hTNFa promoter; test: NHR-promoter luciferase screen, hTNFa promoter; type: cell-based, human; conditions: for Luc. act., normalized to lacZ / Normalized Luc. act., normalized to control: TNFa promoter, HR component without or with ligand; for hTNFa promoter reporter activity: transcription factor +/- ligand, control = 1.00
Description: as §1, §2, §3

| Molecule | Luc. act., normalized to lacZ [1] | Normalized Luc. act., normalized to control [1] | luciferase activity normalized to lacZ activity and to a control, mPer1 [1] | Luc. act., normalized to lacZ [2] | Normalized Luc. act., normalized to control [2] | luciferase activity normalized to lacZ activity and to a control, mUCP! [2] | Luc. act., normalized to lacZ [3] | Normalized Luc. act., normalized to control [3] | Results of assays of transcription factor (+/- ligand) with mLeptin [3] | Normalized Luc. act., normalized to control [4] | Luc. act., normalized to lacZ [4] | mUCP3 promoter reporter activity [4] | Luc. act., normalized to lacZ [5] | Normalized Luc. act., normalized to control [5] | hMDR1 promoter reporter activity [5] | Luc. act., normalized to lacZ [6] | Normalized Luc. act., normalized to control [6] | hTNFa promoter reporter activity [6] |
| --- | --- | --- | --- | --- | --- | --- | --- | --- | --- | --- | --- | --- | --- | --- | --- | --- | --- | --- |
| VDR: Vitamin D Receptor (NR1I1), cDNA driver | 97.1 | 0.7 | 0.67 | 2.8 | 0.6 | 0.63 | 2.6 | 0.9 | 0.90 | 1.5 | 1.0 | 1.49 | 0.3 | 0.9 | 0.90 | 986.3 | 1.0 | 1.00 |
| RORa: RAR-related Orphan Receptor α (NR1F1), cDNA driver (protein, UniProt P35398 1-523, looked up) Nuclear receptor ROR-alpha: MESAPAAPDPAASEPGSSGADAAAGSRETPLNQESARKSEPPAPVRRQSYSSTSRGISVTKKTHTSQIEIIPCKICGDKSSGIHYGVITCEGCKGFFRRSQQSNATYSCPRQKNCLIDRTSRNRCQHCRLQKCLAVGMSRDAVKFGRMSKKQRDSLYAEVQKHRMQQQQRDHQQQPGEAEPLTPTYNISANGLTELHDDLSNYIDGHTPEGSKADSAVSSFYLDIQPSPDQSGLDINGIKPEPICDYTPASGFFPYCSFTNGETSPTVSMAELEHLAQNISKSHLETCQYLREELQQITWQTFLQEEIENYQNKQREVMWQLCAIKITEAIQYVVEFAKRIDGFMELCQNDQIVLLKAGSLEVVFIRMCRAFDSQNNTVYFDGKYASPDVFKSLGCEDFISFVFEFGKSLCSMHLTEDEIALFSAFVLMSADRSWLQEKVKIEKLQQKIQLALQHVLQKNHREDGILTKLICKVSTLRALCGRHTEKLMAFKAIYPDIVRLHFPPLYKELFTSEFEPAMQIDG | 107.9 | 0.7 | 0.75 | 1.7 | 0.4 | 0.38 | 2.1 | 0.7 | 0.71 | 2.6 | 1.7 | 2.56 | 0.1 | 0.3 | 0.32 | 607.5 | 0.6 | 0.62 |
| LXRb: Liver X Receptor β (NR1H2), cDNA driver (protein, UniProt P55055 1-460, looked up) Oxysterols receptor LXR-beta: MSSPTTSSLDTPLPGNGPPQPGAPSSSPTVKEEGPEPWPGGPDPDVPGTDEASSACSTDWVIPDPEEEPERKRKKGPAPKMLGHELCRVCGDKASGFHYNVLSCEGCKGFFRRSVVRGGARRYACRGGGTCQMDAFMRRKCQQCRLRKCKEAGMREQCVLSEEQIRKKKIRKQQQESQSQSQSPVGPQGSSSSASGPGASPGGSEAGSQGSGEGEGVQLTAAQELMIQQLVAAQLQCNKRSFSDQPKVTPWPLGADPQSRDARQQRFAHFTELAIISVQEIVDFAKQVPGFLQLGREDQIALLKASTIEIMLLETARRYNHETECITFLKDFTYSKDDFHRAGLQVEFINPIFEFSRAMRRLGLDDAEYALLIAINIFSADRPNVQEPGRVEALQQPYVEALLSYTRIKRPQDQLRFPRMLMKLVSLRTLSSVHSEQVFALRLQDKKLPPLLSEIWDVHE | 117.6 | 0.8 | 0.82 | 17.2 | 3.9 | 3.88 | 2.4 | 0.8 | 0.81 | 1.7 | 1.2 | 1.73 | 0.2 | 0.8 | 0.78 | 866.1 | 0.9 | 0.88 |
| RORg: RAR-related Orphan Receptor γ (NR1F3), cDNA driver (protein, UniProt P51449 1-518, looked up) Nuclear receptor ROR-gamma: MDRAPQRQHRASRELLAAKKTHTSQIEVIPCKICGDKSSGIHYGVITCEGCKGFFRRSQRCNAAYSCTRQQNCPIDRTSRNRCQHCRLQKCLALGMSRDAVKFGRMSKKQRDSLHAEVQKQLQQRQQQQQEPVVKTPPAGAQGADTLTYTLGLPDGQLPLGSSPDLPEASACPPGLLKASGSGPSYSNNLAKAGLNGASCHLEYSPERGKAEGRESFYSTGSQLTPDRCGLRFEEHRHPGLGELGQGPDSYGSPSFRSTPEAPYASLTEIEHLVQSVCKSYRETCQLRLEDLLRQRSNIFSREEVTGYQRKSMWEMWERCAHHLTEAIQYVVEFAKRLSGFMELCQNDQIVLLKAGAMEVVLVRMCRAYNADNRTVFFEGKYGGMELFRALGCSELISSIFDFSHSLSALHFSEDEIALYTALVLINAHRPGLQEKRKVEQLQYNLELAFHHHLCKTHRQSILAKLPPKGKLRSLCSQHVERLQIFQHLHPIVVQAAFPPLYKELFSTETESPVGLSK | 176.3 | 1.2 | 1.22 | 2.8 | 0.6 | 0.62 | 2.6 | 0.9 | 0.87 | 2.4 | 1.6 | 2.38 | 0.2 | 0.5 | 0.54 | 1152.0 | 1.2 | 1.17 |
| HNF4a: Hepatocyte Nuclear Factor α (NR2A1), cDNA driver (protein, UniProt P41235 1-474, looked up) Hepatocyte nuclear factor …: MRLSKTLVDMDMADYSAALDPAYTTLEFENVQVLTMGNDTSPSEGTNLNAPNSLGVSALCAICGDRATGKHYGASSCDGCKGFFRRSVRKNHMYSCRFSRQCVVDKDKRNQCRYCRLKKCFRAGMKKEAVQNERDRISTRRSSYEDSSLPSINALLQAEVLSRQITSPVSGINGDIRAKKIASIADVCESMKEQLLVLVEWAKYIPAFCELPLDDQVALLRAHAGEHLLLGATKRSMVFKDVLLLGNDYIVPRHCPELAEMSRVSIRILDELVLPFQELQIDDNEYAYLKAIIFFDPDAKGLSDPGKIKRLRSQVQVSLEDYINDRQYDSRGRFGELLLLLPTLQSITWQMIEQIQFIKLFGMAKIDNLLQEMLLGGSPSDAPHAHHPLHPHLMQEHMGTNVIVANTMPTHLSNGQMCEWPRPRGQAATPETPQPSPPGGSGSEPYKLLPGAVATIVKPLSAIPQPTITKQEVI | 93.1 | 0.6 | 0.65 | 2.8 | 0.6 | 0.63 | 2.5 | 0.8 | 0.84 | 1.1 | 0.7 | 1.06 | 0.2 | 0.8 | 0.77 | 852.9 | 0.9 | 0.87 |
